Data set [1] has as its target T1, SsoMCM WT (Sulfolobus solfataricus, UniProt Q9UXG1 1-686).
T1 sequence: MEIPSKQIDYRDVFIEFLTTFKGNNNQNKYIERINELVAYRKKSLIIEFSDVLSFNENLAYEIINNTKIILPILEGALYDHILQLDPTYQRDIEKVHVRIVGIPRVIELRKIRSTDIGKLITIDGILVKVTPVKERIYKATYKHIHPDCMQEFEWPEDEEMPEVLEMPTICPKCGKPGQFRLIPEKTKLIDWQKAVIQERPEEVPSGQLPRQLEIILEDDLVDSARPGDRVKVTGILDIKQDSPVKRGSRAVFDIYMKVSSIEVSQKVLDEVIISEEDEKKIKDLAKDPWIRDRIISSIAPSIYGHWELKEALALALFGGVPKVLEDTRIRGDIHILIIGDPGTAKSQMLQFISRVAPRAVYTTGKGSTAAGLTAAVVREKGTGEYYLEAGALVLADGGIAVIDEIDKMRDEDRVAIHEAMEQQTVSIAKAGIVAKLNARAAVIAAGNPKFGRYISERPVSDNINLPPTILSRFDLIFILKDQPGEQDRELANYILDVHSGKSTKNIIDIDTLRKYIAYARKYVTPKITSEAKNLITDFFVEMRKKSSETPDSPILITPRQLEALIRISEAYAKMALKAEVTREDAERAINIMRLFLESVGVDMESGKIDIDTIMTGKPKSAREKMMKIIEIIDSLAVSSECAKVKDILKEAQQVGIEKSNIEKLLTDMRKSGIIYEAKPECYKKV
Nature of the data set: fluorescence anisotropy. In general terms: In fluorescence polarisation assays a small probe gives low polarisation when free and higher when bound to something large.

The target in a further data set is T2, SsoMCM K323A/R440A (Sulfolobus solfataricus, UniProt Q9UXG1 1-686, K323A;R440A).
T2 sequence: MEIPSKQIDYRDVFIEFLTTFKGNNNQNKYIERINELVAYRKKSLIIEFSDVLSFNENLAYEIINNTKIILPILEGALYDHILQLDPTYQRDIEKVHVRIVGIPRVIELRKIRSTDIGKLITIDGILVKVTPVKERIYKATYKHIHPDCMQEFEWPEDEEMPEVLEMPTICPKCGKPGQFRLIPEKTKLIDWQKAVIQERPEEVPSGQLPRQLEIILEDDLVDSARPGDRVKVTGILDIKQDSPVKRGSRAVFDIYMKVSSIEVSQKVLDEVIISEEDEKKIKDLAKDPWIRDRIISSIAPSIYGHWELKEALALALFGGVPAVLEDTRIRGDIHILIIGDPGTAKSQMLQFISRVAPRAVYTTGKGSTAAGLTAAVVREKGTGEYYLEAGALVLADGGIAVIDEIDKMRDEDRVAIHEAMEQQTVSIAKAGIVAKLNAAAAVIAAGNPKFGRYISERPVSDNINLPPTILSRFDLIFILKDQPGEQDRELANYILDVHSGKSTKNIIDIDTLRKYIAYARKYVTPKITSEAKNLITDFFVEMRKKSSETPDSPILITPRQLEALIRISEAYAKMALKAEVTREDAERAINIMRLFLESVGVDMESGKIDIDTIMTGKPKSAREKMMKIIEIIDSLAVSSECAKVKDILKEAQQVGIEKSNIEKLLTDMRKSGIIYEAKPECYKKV
Put plainly: single-pair FRET.

Data set [2] deals with T1, SsoMCM WT. Nature of the data set: single-pair FRET.
The data set “SEC” deals with the molecule itself. Put plainly: SEC. For orientation: SEC sorts molecules by how far they enter the pores of the column.

B1: ssDNA (66 nt) (ssDNA)
DNA: CACCTCTCCCTACGCTTCCCACCCACCCCGACCGGCATCTGCTATGGTACGCTGAGCGAGAGTAGC
One may read the Kd as the constant that tells how readily two partners part at equilibrium. The low end stands for higher affinity, the high end for lower affinity. Consider B1, for which the Kd in the data set with SsoMCM WT [1] was 26 ± 5 nM.

B2: spFRET fork 5'-tail 50 (51 nt) (mixed)
DNA 1: TGGCGACGGCAGCGAGGCTTTTTTTTTTTTTTTTTTTTTTTTTTTTTTT
DNA 2: TTTTTTTTTTTTTTTTTTTTTTTTTTTTTTTTTTTTTTTTTTTTTTTTTTTGCCTCGCTGCCGTCGCCA
Regarding B2, the binding result in the data set with SsoMCM K323A/R440A and in the data set with SsoMCM WT [2] was “binds” in each case.

B3: spFRET fork 5'-tail 70 (71 nt) (mixed)
DNA 1: TGGCGACGGCAGCGAGGCTTTTTTTTTTTTTTTTTTTTTTTTTTTTTTT
DNA 2: TTTTTTTTTTTTTTTTTTTTTTTTTTTTTTTTTTTTTTTTTTTTTTTTTTTTTTTTTTTTTTTTTTTTTTTGCCTCGCTGCCGTCGCCA
As to B3, the binding result with SsoMCM K323A/R440A and with SsoMCM WT [2] was “binds” throughout.

B4: Full-length wild-type Sulfolobus solfataricus minichromosome maintenance (MCM) helicase (enzyme, UniProt Q9UXG1 1-686, looked up)
chain: MEIPSKQIDYRDVFIEFLTTFKGNNNQNKYIERINELVAYRKKSLIIEFSDVLSFNENLAYEIINNTKIILPILEGALYDHILQLDPTYQRDIEKVHVRIVGIPRVIELRKIRSTDIGKLITIDGILVKVTPVKERIYKATYKHIHPDCMQEFEWPEDEEMPEVLEMPTICPKCGKPGQFRLIPEKTKLIDWQKAVIQERPEEVPSGQLPRQLEIILEDDLVDSARPGDRVKVTGILDIKQDSPVKRGSRAVFDIYMKVSSIEVSQKVLDEVIISEEDEKKIKDLAKDPWIRDRIISSIAPSIYGHWELKEALALALFGGVPKVLEDTRIRGDIHILIIGDPGTAKSQMLQFISRVAPRAVYTTGKGSTAAGLTAAVVREKGTGEYYLEAGALVLADGGIAVIDEIDKMRDEDRVAIHEAMEQQTVSIAKAGIVAKLNARAAVIAAGNPKFGRYISERPVSDNINLPPTILSRFDLIFILKDQPGEQDRELANYILDVHSGKSTKNIIDIDTLRKYIAYARKYVTPKITSEAKNLITDFFVEMRKKSSETPDSPILITPRQLEALIRISEAYAKMALKAEVTREDAERAINIMRLFLESVGVDMESGKIDIDTIMTGKPKSAREKMMKIIEIIDSLAVSSECAKVKDILKEAQQVGIEKSNIEKLLTDMRKSGIIYEAKPECYKKV
The stoichiometry N is the number of molecules, sites or subunits per partner or assembly. As for B4, in the data set “SEC”, the “stoichiometry N” value was found to be 6.

B5: SsoMCM R440A (enzyme, Sulfolobus solfataricus, UniProt Q9UXG1 1-686, looked up)
chain: MEIPSKQIDYRDVFIEFLTTFKGNNNQNKYIERINELVAYRKKSLIIEFSDVLSFNENLAYEIINNTKIILPILEGALYDHILQLDPTYQRDIEKVHVRIVGIPRVIELRKIRSTDIGKLITIDGILVKVTPVKERIYKATYKHIHPDCMQEFEWPEDEEMPEVLEMPTICPKCGKPGQFRLIPEKTKLIDWQKAVIQERPEEVPSGQLPRQLEIILEDDLVDSARPGDRVKVTGILDIKQDSPVKRGSRAVFDIYMKVSSIEVSQKVLDEVIISEEDEKKIKDLAKDPWIRDRIISSIAPSIYGHWELKEALALALFGGVPKVLEDTRIRGDIHILIIGDPGTAKSQMLQFISRVAPRAVYTTGKGSTAAGLTAAVVREKGTGEYYLEAGALVLADGGIAVIDEIDKMRDEDRVAIHEAMEQQTVSIAKAGIVAKLNAAAAVIAAGNPKFGRYISERPVSDNINLPPTILSRFDLIFILKDQPGEQDRELANYILDVHSGKSTKNIIDIDTLRKYIAYARKYVTPKITSEAKNLITDFFVEMRKKSSETPDSPILITPRQLEALIRISEAYAKMALKAEVTREDAERAINIMRLFLESVGVDMESGKIDIDTIMTGKPKSAREKMMKIIEIIDSLAVSSECAKVKDILKEAQQVGIEKSNIEKLLTDMRKSGIIYEAKPECYKKV
For B5, in “SEC”, the “stoichiometry N” value was 6.

B6: SsoMCM K323A (enzyme, Sulfolobus solfataricus, UniProt Q9UXG1 1-686, looked up)
chain: MEIPSKQIDYRDVFIEFLTTFKGNNNQNKYIERINELVAYRKKSLIIEFSDVLSFNENLAYEIINNTKIILPILEGALYDHILQLDPTYQRDIEKVHVRIVGIPRVIELRKIRSTDIGKLITIDGILVKVTPVKERIYKATYKHIHPDCMQEFEWPEDEEMPEVLEMPTICPKCGKPGQFRLIPEKTKLIDWQKAVIQERPEEVPSGQLPRQLEIILEDDLVDSARPGDRVKVTGILDIKQDSPVKRGSRAVFDIYMKVSSIEVSQKVLDEVIISEEDEKKIKDLAKDPWIRDRIISSIAPSIYGHWELKEALALALFGGVPAVLEDTRIRGDIHILIIGDPGTAKSQMLQFISRVAPRAVYTTGKGSTAAGLTAAVVREKGTGEYYLEAGALVLADGGIAVIDEIDKMRDEDRVAIHEAMEQQTVSIAKAGIVAKLNARAAVIAAGNPKFGRYISERPVSDNINLPPTILSRFDLIFILKDQPGEQDRELANYILDVHSGKSTKNIIDIDTLRKYIAYARKYVTPKITSEAKNLITDFFVEMRKKSSETPDSPILITPRQLEALIRISEAYAKMALKAEVTREDAERAINIMRLFLESVGVDMESGKIDIDTIMTGKPKSAREKMMKIIEIIDSLAVSSECAKVKDILKEAQQVGIEKSNIEKLLTDMRKSGIIYEAKPECYKKV
Regarding B6, the “stoichiometry N” value in “SEC” was 6.

B7: SsoMCM K323A/R440A (enzyme, Sulfolobus solfataricus, UniProt Q9UXG1 1-686, looked up)
chain: MEIPSKQIDYRDVFIEFLTTFKGNNNQNKYIERINELVAYRKKSLIIEFSDVLSFNENLAYEIINNTKIILPILEGALYDHILQLDPTYQRDIEKVHVRIVGIPRVIELRKIRSTDIGKLITIDGILVKVTPVKERIYKATYKHIHPDCMQEFEWPEDEEMPEVLEMPTICPKCGKPGQFRLIPEKTKLIDWQKAVIQERPEEVPSGQLPRQLEIILEDDLVDSARPGDRVKVTGILDIKQDSPVKRGSRAVFDIYMKVSSIEVSQKVLDEVIISEEDEKKIKDLAKDPWIRDRIISSIAPSIYGHWELKEALALALFGGVPAVLEDTRIRGDIHILIIGDPGTAKSQMLQFISRVAPRAVYTTGKGSTAAGLTAAVVREKGTGEYYLEAGALVLADGGIAVIDEIDKMRDEDRVAIHEAMEQQTVSIAKAGIVAKLNAAAAVIAAGNPKFGRYISERPVSDNINLPPTILSRFDLIFILKDQPGEQDRELANYILDVHSGKSTKNIIDIDTLRKYIAYARKYVTPKITSEAKNLITDFFVEMRKKSSETPDSPILITPRQLEALIRISEAYAKMALKAEVTREDAERAINIMRLFLESVGVDMESGKIDIDTIMTGKPKSAREKMMKIIEIIDSLAVSSECAKVKDILKEAQQVGIEKSNIEKLLTDMRKSGIIYEAKPECYKKV
For B7, in “SEC”, the “stoichiometry N” value is 6.

Source of the values: paper PMC3159478 (Nucleic Acids Research, 2011).
